From patent US11318209B2, “Targeting macula densa cells as a new therapeutic approach for kidney disease” (MACULA DENSA CELL LLC, priority 2016, dated 2022)
Entries after “also recorded” stand apart in the source; their conditions may differ.

What was measured:
[1] = tested on: Ki67+ proliferating cells in the JGA area; assay: Ki67 immunofluorescence of low salt diet+captopril-treated mouse kidneys; format: in vivo
Excerpt: FIG. 7. Ki67 (red nuclei) immunofluorescence of control (FIG. 7A-FIG. 7B) and low salt diet+captopril-treated mouse kidneys (FIG. 7C-FIG. 7D). In contrast to control untreated (FIG. 7A) and control+7-NI (FIG. 7B), a high density of Ki67+ proliferating cells are visible around the JGA interstitium in response to low salt diet+captopril treatment (FIG. 7C). […] Nuclei were labeled blue with DAPI. n=4 each group, §: P<0.05 versus ctrl, *: P<0.05 versus untreated low salt+captopril.
(§1) The increased density of NG2+ cells was 70% inhibited by the administration of the selective COX-2 inhibitor SC58236 (FIG. 6E).

[2] = tested on: NG2+ cells in the JGA area; assay: NG2 immunofluorescence of low salt diet+captopril-treated mouse kidneys; format: in vivo
Excerpt: FIG. 6. NG2 (FIG. 6A, green) and renin (FIG. 6B, red) immunofluorescence of low salt diet+captopril-treated mouse kidneys. […] Nuclei were labeled blue with DAPI. n=4 each group, *: P<0.05.
as §1

[3] = tested on: NG2-derived progenitor cells; assay: Kidney tissue remodeling after 10 days of loop diuretic; format: in vivo; conditions: 10 days of treatment in an animal model
Excerpt: FIG. 22. […] Increase in renal cortical mesenchyme-derived cell density (red), remodeling of the entire length of the glomerular (G) arterioles by NG2-derived progenitor cells within 10 days in response to loop diuretics.
The Inventors' initial experimental strategy to show proof-of-principle for this macula densa mechanism was to apply gold-standard whole body approaches to activate this new mechanism (e.g. dietary salt restriction and loop diuretics), which have been known for decades to improve kidney function. One example is the use of the loop diuretic furosemide, which blocks salt-sensing by MD cells and therefore is equivalent to the effects of low dietary salt intake as shown in FIGS. 6-7, 10). […] Furosemide and other loop diuretics have been in human clinical use for decades as efficient anti-hypertensive therapies. In addition to diuretics, the Inventors will explore other small molecules that may have specific MD cell targeting characteristics, and may activate the MD kidney repair program.

MMDD1 cells = assay: GFP transfection with MMDD1 homing peptide+GFP cDNA complex; format: cell-based; conditions: overnight incubation, fluorescence microscopy
Excerpt: FIG. 19. Selective targeting of MD cells with the MMDD1 homing peptide. […] Note the diffuse cytosolic GFP expression in MMDD1 cells indicating successful escape of the endosomes after fusion protein internalization.
In preliminary data, the Inventors identified a MMDD1 homing peptide based on phage-display, used it as targeting domain, and fused to a histidine-rich amphipathic peptide, optimized for DNA binding properties and gene delivery through endosomal escape. The fusiogenic peptide was synthesized:
The peptide was mixed with pcDNA3.1 GFP and incubated for 1 hour at room temperature. The solution was added to cultured MMDD1 cells (MD cell line), HEK293 cells and M-1 cells (collecting duct cell line), and incubated overnight at 37° C. in a humidified atmosphere (95% air and 5% CO2). Transfection was measured by fluorescence microscopy.

cultured GEnCs [4] = assay: Endothelial tube formation assay (in vitro angiogenesis); format: cell-based; conditions: standard doses of CCN1 and VEGF
Protocol: FIG. 11. Robust effect of CCN1 on GEnCs: in vitro angiogenesis. Endothelial tube formation assays were performed using cultured GEnCs and standard doses of CCN1 and VEGF. *: P<0.05. Results are shown in FIG. 11A, FIG. 11B, FIG. 11C, FIG. 11D and FIG. 11E.
(§2) CCN1 had no effect on renin cell proliferation and migration (not shown).
In order to reproduce all of these MD-specific protective factors for therapeutic use, the Inventors utilized the existing MMDD1 in vitro cell culture model of MD cells that endogenously produce these factors. Mimicking the in vivo physiological activation of MD cells (low salt diet), the NaCl content of MD tissue culture medium was reduced by half as described earlier. […] The therapeutic strategy with this medium (illustrated in FIG. 21) is the same as above for CCN1, to inject it under the renal capsule for specific kidney targeting.

cultured GEnCs [5] = assay: GEnC cell proliferation and cell migration (scratch opening assay); format: cell-based
renin cell = assay: Renin cell proliferation and migration; format: cell-based; conditions: not shown
Excerpt: as §2

sclerotic glomeruli = assay: ADR mouse model of GS, renal subcapsular treatment; format: in vivo
Excerpt: FIG. 17. The effects of CCN1 and MMDD1 conditioned media treatment in the ADR mouse model of GS. FIG. 17A: illustration of study design. FIG. 17B: Effects of CCN1 and MMDD1 media on the number of Ki67+ cells (IF, red) per field. FIG. 17C: Effects of CCN1 and MMDD1 media on the number of p57+ podocytes (IF, red) per glomerulus. Green is autofluorescence for visualization of tissue anatomy.
In other preliminary experiments, mouse (ADR nephropathy resembling human-like FSGS) and rat (PAN-induced FSGS) models of CKD were established. Single renal subcapsular treatment with exogenous recombinant CCN1 was performed at a time point (two weeks after second ADR dose in mice, or after the second dose of PAN in rats) when severe and persistent glomerular pathology was confirmed (FIG. 17A), with subsequent two weeks' follow-up. Animals were placed in metabolic cages weekly for urine collection, and tissues (kidney, aorta, heart, brain, blood) harvested 4 weeks (after first ADR dose in mice), or 2 months (after first PAN dose in rats).
Since the main problem in kidney disease appears to be reduced or absent production of CCN1 by macula densa cells, the Inventors can supplement recombinant CCN1 peptide delivered specifically into the renal parenchyma. In preliminary studies illustrated in FIG. 17, the Inventors used subcapsular injections of recombinant CCN1. However, this is invasive procedure, which would have limited clinical use. A much better non-invasive approach the Inventors are currently testing is to give systemic iv injection of recombinant CCN1 targeted specifically to the kidney blood supply. This is performed by conjugating recombinant CCN1 to a glomerulus homing peptide. The promise and therapeutic benefit of this approach is shown in FIG. 17 in a pre-clinical animal model of CKD.
In order to reproduce all of these MD-specific protective factors for therapeutic use, the Inventors utilized the existing MMDD1 in vitro cell culture model of MD cells that endogenously produce these factors. […]

[6] = BalbC Adriamycin mouse model of FSGS; format: in vivo
Excerpt: FIG. 24. The robust protective effects of treatment with recombinant CCN1 or conditioned MD cell media in the BalbC Adriamycin mouse model of FSGS in vivo. FIG. 24A: Albuminuria (albumin/creatinine ratio, ACR) in the various control and treatment groups before ADR-induced kidney injury (baseline), two weeks later before the start of treatments, and 1 and 4 weeks after treatment with saline, recombinant CCN1, control or low salt-conditioned MD cell media. FIG. 24B-FIG. 24C: Trichrome staining of kidney histological sections.
In other work The Inventors tested the effects and therapeutic potential of the aforementioned novel biologicals. The robust protective effects of treatment with recombinant CCN1 or conditioned MD cell media in the BalbC Adriamycin mouse model of human-like focal segmental glomerulosclerosis (FSGS) in vivo is shown in FIG. 24. […] The development of albuminuria, the most important and clinically relevant functional readout of the failing kidneys was measured in the various control and experimental treatment groups before ADR-induced kidney injury (baseline), two weeks later before the start of treatments, and 1 and 4 weeks after treatment with saline, recombinant CCN1, control or low salt-conditioned MD cell media.

[7] = tested on: glomerular endothelial cells; assay: Serial MPM imaging of glomerular endothelial cells in Cdh5-Confetti mice; format: in vivo, mouse
Protocol: FIG. 15. Tracking the fate of the same glomerular endothelial cells over time in vivo at the single cell level. FIG. 15A-FIG. 15B: Serial MPM imaging of the same glomerulus (G) in the same Cdh5-Confetti mice was performed daily for one week. Endothelial cell distribution was registered using Z-sectioning of the glomerulus from top to bottom at each time point. Compared to baseline (FIG. 15A) when cells of all Confetti colors (membrane-bound CFP (blue), nuclear GFP (green), cytosolic YFP (yellow) and RFP (red)) were evenly distributed within the glomerulus, monochromatic glomeruli developed as early as 4 days (FIG. 15B) after endothelial injury (L-NAME treatment) indicating the presence of single precursor cell-derived colonies. Note the presence of cells in multiple colors in the afferent arteriole (AA, arrow) at baseline (FIG. 15A) including one GFP+ (green) and one RFP+ (magenta) cell at the terminal segment, and the identically colored intra-glomerular cell colonies (mostly green, some magenta) 4 days later (FIG. 15B). FIG. 15C: Schematic of the three directly adjacent JGA cell types (MD, JG renin, and AA EPCs) forming a functional syntitium via cell-to-cell crosstalk to remodel the glomerulus.

[8] = low salt diet+captopril treatment for one week

O=[N+]([O-])c1cccc2cn[nH]c12 [7-NI]
proliferation of NG2+ cells [1, 8]: completely abolished
number of Ki67+ cells in the JGA area ([1]; low salt diet+captopril-treated, n=4 each group, P<0.05 versus untreated low salt+captopril): significantly reduced

NS(=O)(=O)c1ccc(-n2nc(C(F)(F)F)cc2-c2ccc(Cl)cc2)cc1 [SC58236]
inhibition of the increased density of NG2+ cells [2, 8]: 70%
number of NG2+ cells in the JGA area ([2]; low salt diet+captopril-treated, n=4 each group, P<0.05): significantly reduced

NS(=O)(=O)c1cc(C(=O)O)c(NCc2ccco2)cc1Cl [furosemide]
kidney tissue (vascular and glomerular) remodeling [3]: significant kidney tissue remodeling; also recorded: Robust vascular and glomerular remodeling

NH2-ACFNDSDMLCGGGKKHLLAHALHLLALLALHLAHALAHLKKA-NH2 (H-ACFNDSDMLCGGGKKHLLAHALHLLALLALHLAHALAHLKKA-NH2; cysteine pairing not given here) [MMDD1 homing peptide+GFP cDNA complex]
transfection with GFP (MMDD1 cells): successful transfection

B1: CCN1: recombinant CCN family member 1, secreted matricellular protein, angiogenic inducer (protein, UniProt O00622 25-381, looked up)
CCN family member 1: TCPAACHCPLEAPKCAPGVGLVRDGCGCCKVCAKQLNEDCSKTQPCDHTKGLECNFGASSTALKGICRAQSEGRPCEYNSRIYQNGESFQPNCKHQCTCIDGAVGCIPLCPQELSLPNLGCPNPRLVKVTGQCCEEWVCDEDSIKDPMEDQDGLLGKELGFDASEVELTRNNELIAVGKGSSLKRLPVFGMEPRILYNPLQGQKCIVQTTSWSQCSKTCGTGISTRVTNDNPECRLVKETRICEVRPCGQPVYSSLKKGKKCSKTKKSPEPVRFTYAGCLSVKKYRPKYCGSCVDGRCCTPQLTRTVKMRFRCEDGETFSKNVMMIQSCKCNYNCPHANEAAFPFYRLFNDIHKFRD
in vitro angiogenesis (tube formation assay) compared with VEGF (cultured GEnCs [4]): more effective
effect on cell proliferation and migration (cultured GEnCs [5]; added to the media of cultured GEnCs): robust dose-dependent effect
effects on GEnCs in presence of blocking antibodies for integrins αvβ3 and VEGF receptor blockers (cultured GEnCs [5]; not shown): almost completely abolished
effect on renin cell proliferation and migration (renin cell): no effect
proteinuria (sclerotic glomeruli; preliminary mouse and rat studies of GS): diminished proteinuria
increase in Ki67+ proliferating cells in glomeruli (sclerotic glomeruli; single renal subcapsular treatment, two weeks' follow-up): > 20 fold
number of p57+ podocytes (sclerotic glomeruli; single treatment, treated versus control groups): significantly increased
albuminuria (albumin/creatinine ratio, ACR) ([6]; treatment for 5 consecutive days started two weeks after 8 mg/kg ADR iv, 1 and 4 weeks after treatment): robust decline
glomerulosclerosis and tissue fibrosis (trichrome kidney histology) ([6]; versus control saline-treated): improved pathology
Confetti cell tracing units in glomeruli ([7]; subcapsular treatment for one week): high number of Confetti cells formed monochromatic tracing units
remodeling of the glomerular endothelial layer ([7]; within a few days): rapid and robust remodeling
